Measurements reported in patent publication US11512128B2, “VEGF/DLL4 binding agents and uses thereof” (MEREO BIOPHARMA 5, INC., priority 2011, dated 2022).

B1: 21M18: anti-DLL4 antibody, parental antibody (Hoey et al., 2009; U.S. Pat. No. 7,750,124) (antibody, V domains shown)
VH: QVQLVQSGAEVKKPGASVKISCKASGYSFTAYYIHWVKQAPGQGLEWIGYISSYNGATNYNQKFKGRVTFTTDTSTSTAYMELRSLRSDDTAVYYCARDYDYDVGMDYWGQGTLVTVSS
VL: DIVMTQSPDSLAVSLGERATISCRASESVDNYGISFMKWFQQKPGQPPKLLIYAASNQGSGVPDRFSGSGSGTDFTLTISSLQAEDVAVYYCQQSKEVPWTFGGGTKVEIK
B2: 219R45-MB-21R79: anti-VEGF/anti-DLL4 monovalent/bispecific antibody, heavy chains SEQ ID NO:7 and 6, light chains SEQ ID NO:8 (antibody)
heavy 1: QVQLVQSGAEVKKPGASVKVSCKASGYTFTNYWMHWVRQAPGQGLEWMGDINPSNGRTSYKEKFKRRVTLSVDKSSSTAYMELSSLRSEDTAVYFCTIHYDDKYYPLMDYWGQGTLVTVSSASTKGPSVFPLAPCSRSTSESTAALGCLVKDYFPEPVTVSWNSGALTSGVHTFPAVLQSSGLYSLSSVVTVPSSNFGTQTYTCNVDHKPSNTKVDKTVERKCCVECPPCPAPPVAGPSVFLFPPKPKDTLMISRTPEVTCVVVDVSHEDPEVQFNWYVDGVEVHNAKTKPREEQFNSTFRVVSVLTVVHQDWLNGKEYKCKVSNKGLPAPIEKTISKTKGQPREPQVYTLPPSREKMTKNQVSLTCLVKGFYPSDIAVEWESNGQPENNYKTTPPMLKSDGSFFLYSKLTVDKSRWQQGNVFSCSVMHEALHNHYTQKSLSLSPGK
heavy 2: QVQLVQSGAEVKKPGASVKISCKASGYSFTAYYIHWVKQAPGQGLEWIGYIANYNRATNYNQKFKGRVTFTTDTSTSTAYMELRSLRSDDTAVYYCARDYDYDVGMDYWGQGTLVTVSSASTKGPSVFPLAPCSRSTSESTAALGCLVKDYFPEPVTVSWNSGALTSGVHTFPAVLQSSGLYSLSSVVTVPSSNFGTQTYTCNVDHKPSNTKVDKTVERKCCVECPPCPAPPVAGPSVFLFPPKPKDTLMISRTPEVTCVVVDVSHEDPEVQFNWYVDGVEVHNAKTKPREEQFNSTFRVVSVLTVVHQDWLNGKEYKCKVSNKGLPAPIEKTISKTKGQPREPQVYTLPPSREEMTKNQVSLTCLVEGFYPSDIAVEWESNGQPENNYKTTPPMLDSDGSFFLYSELTVDKSRWQQGNVFSCSVMHEALHNHYTQKSLSLSPGK
light: DIVMTQSPDSLAVSLGERATISCRASESVDNYGISFMKWFQQKPGQPPKLLIYAASNQGSGVPDRFSGSGSGTDFTLTISSLQAEDVAVYYCQQSKEVPWTFGGGTKVEIKRTVAAPSVIFPPSDEQLKSGTASVVCLLNNFYPREAKVQWKVDNALQSGNSQESVTEQDSKDSTYSLSSTLTLSKADYEKHKVYACEVTHQGLSSPVTKSFNRGEC
modifications: 21R79 Heavy chain without predicted signal sequence; Light chain without predicted signal sequence
B3: 219R45-MB-21M18: anti-VEGF/anti-DLL4 monovalent/bispecific antibody, heavy chains SEQ ID NO:7 and 5, light chains SEQ ID NO:8 (antibody)
heavy 1: QVQLVQSGAEVKKPGASVKVSCKASGYTFTNYWMHWVRQAPGQGLEWMGDINPSNGRTSYKEKFKRRVTLSVDKSSSTAYMELSSLRSEDTAVYFCTIHYDDKYYPLMDYWGQGTLVTVSSASTKGPSVFPLAPCSRSTSESTAALGCLVKDYFPEPVTVSWNSGALTSGVHTFPAVLQSSGLYSLSSVVTVPSSNFGTQTYTCNVDHKPSNTKVDKTVERKCCVECPPCPAPPVAGPSVFLFPPKPKDTLMISRTPEVTCVVVDVSHEDPEVQFNWYVDGVEVHNAKTKPREEQFNSTFRVVSVLTVVHQDWLNGKEYKCKVSNKGLPAPIEKTISKTKGQPREPQVYTLPPSREKMTKNQVSLTCLVKGFYPSDIAVEWESNGQPENNYKTTPPMLKSDGSFFLYSKLTVDKSRWQQGNVFSCSVMHEALHNHYTQKSLSLSPGK
heavy 2: QVQLVQSGAEVKKPGASVKISCKASGYSFTAYYIHWVKQAPGQGLEWIGYISSYNGATNYNQKFKGRVTFTTDTSTSTAYMELRSLRSDDTAVYYCARDYDYDVGMDYWGQGTLVTVSSASTKGPSVFPLAPCSRSTSESTAALGCLVKDYFPEPVTVSWNSGALTSGVHTFPAVLQSSGLYSLSSVVTVPSSNFGTQTYTCNVDHKPSNTKVDKTVERKCCVECPPCPAPPVAGPSVFLFPPKPKDTLMISRTPEVTCVVVDVSHEDPEVQFNWYVDGVEVHNAKTKPREEQFNSTFRVVSVLTVVHQDWLNGKEYKCKVSNKGLPAPIEKTISKTKGQPREPQVYTLPPSREEMTKNQVSLTCLVEGFYPSDIAVEWESNGQPENNYKTTPPMLDSDGSFFLYSELTVDKSRWQQGNVFSCSVMHEALHNHYTQKSLSLSPGK
light: DIVMTQSPDSLAVSLGERATISCRASESVDNYGISFMKWFQQKPGQPPKLLIYAASNQGSGVPDRFSGSGSGTDFTLTISSLQAEDVAVYYCQQSKEVPWTFGGGTKVEIKRTVAAPSVIFPPSDEQLKSGTASVVCLLNNFYPREAKVQWKVDNALQSGNSQESVTEQDSKDSTYSLSSTLTLSKADYEKHKVYACEVTHQGLSSPVTKSFNRGEC
modifications: 21R79 Heavy chain without predicted signal sequence; 21M18 Heavy chain without predicted signal sequence; Light chain without predicted signal sequence

Columns and labels:
[1] = tested on: OMP-C8 colon tumor cells; test: Tumor growth in human skin graft model; type: in vivo, NOD-SCID mice; conditions: 25 mg/kg intraperitoneally once a week
Procedure: FIG. 5. Inhibition of colon tumor growth in vivo by an anti-VEGF/anti-DLL4 bispecific antibody. OMP-C8 colon tumor cells were injected subcutaneously into a human skin graft in NOD/SCID mice. Mice were treated with control antibody (-▪-), anti-hDLL4 antibody 21M18 (-▴-), anti-VEGF antibody bevacizumab (-∘-), or anti-VEGF/anti-DLL4 bispecific antibody 219R45-MB-21M18 (-▾-). Data is shown as tumor volume (photons/sec) over days post-treatment. Antibodies were administered intraperitoneally at a dose of 25 mg/kg once a week.
A human skin graft model has been reported which comprises a human skin graft and human tumor cells. A human skin graft is established and then human tumor cells are implanted into the skin graft, allowing the tumor cells to grow in an environment with human stroma and vasculature (Tahtis et al., 2003, Mol. Cancer Ther. 2:[…]). Human skin samples were obtained from neonatal foreskin tissue and grafted onto the lateral flank of NOD-SCID mice. After establishment of the skin graft, luciferase-labeled OMP-C8 colon tumor cells (20,000 cells) were injected intradermally into the human skin. Tumor growth was monitored by bioluminescence imaging using an IVIS imaging system (Caliper Life Sciences, Mountain View, Calif.). Tumors were allowed to grow until they reached 1.2×10^6 photons per second. Tumor-bearing mice (n=6 mice/group) were randomized and treated with control Ab, anti-hDLL4 antibody 21M18, anti-VEGF antibody bevacizumab, or anti-VEGF/anti-DLL4 bispecific antibody 219R45-MB-21M18. Animals were treated once a week and antibodies were administered intraperitoneally at a dose of 25 mg/kg. Tumor growth was monitored by bioluminescence imaging on the indicated days.

[2] = target: VEGF and DLL4 (Homo sapiens, UniProt P15692+Q9NR61); test: HTRF assay for simultaneous binding to human VEGF and human DLL4; conditions: d2-labeled hDLL4-Fc and Europium cryptate-labeled hVEGF165
Description: FIG. 2. HTRF assay for simultaneous binding of bispecific antibodies to human VEGF and human DLL4. Results are reported in Relative Fluorescence Units (RFU), which represent the ratio of the relative fluorescence intensity at 665 nm to the relative fluorescence intensity at 620 nm. 219R45-MB-21M18 (-●-); 219R45-MB-21R79 (-▪-); 219R45 plus 21M18 (-▴-); 219R45 plus 21R79 (-□-); 219R45 (-▾-); 21M18 (-⋄-); 21R79 (-∘-); control antibody LZ-1 (-Δ-).
To characterize the binding capabilities of certain antibodies and/or antibody mixtures to both VEGF and DLL4, homogeneous time resolved fluorescence (HTRF) assays were performed. Antibodies tested were anti-VEGF/anti-DLL4 bispecific antibodies 219R45-MB-21M18 and 219R45-MB-21R79, parental antibodies 219R45 (anti-VEGF), 21M18 (anti-DLL4), 21R79 (anti-DLL4), a combination of 219R45 and 21M18, or a combination of 219R45 and 21R79. The antibodies or antibody mixtures were serially diluted 2-fold from 3000 nM to 2.9 nM in binding buffer (1× PBS, 0.1% gelatin, 0.1% Polysorbate 20, 400 mM potassium fluoride) and placed in a white 96-well plate. […] The assay plates were incubated for 2 hours to overnight and read on a SpectraMax M5e Microplate reader (Molecular Devices, Sunnyvale, Calif.) at an excitation wavelength of 314 nm.

[3] = tested on: VEGF-induced proliferation of HUVEC cells; test: HUVEC proliferation assay; type: cell-based, human; conditions: hVEGF 5 ng/ml, Alamar Blue on day 7
Procedure: FIG. 3. Inhibition of VEGF-induced HUVEC proliferation by anti-VEGF/anti-DLL4 bispecific antibodies. Fluorescence intensity is read using an excitation wavelength of 530 nm and an emission wavelength of 590. 219R45-MB-21M18 (-●-); 219R45-MB-21R79 (-▴-); 219R45 (-▪-); Medium with no VEGF (-⋄-).
HUVEC cells were obtained from Lonza (Walkersville, Md.) and cultured in growth media (M199, 10% heat-inactivated FBS (HI-FBS), 50 μg/ml EGS, 1X heparin, 1 mM L-glutamine). For the HUVEC proliferation assay, a 96-well plate was pre-coated with 50 μl of 10 μg/ml rat tail collagen type I solution (collagen I in 0.02N acetic acid) and incubated at 4° C. overnight. After incubation, the plate was thoroughly aspirated to remove unbound collagen I solution and washed once with 200 μl DPBS. The HUVEC cells were removed from the surface of the growth flasks using an endothelial cell subclone reagent and centrifuged at 1200 rpm for 5 minutes at 4° C. The cells were resuspended in starvation/assay medium (M199 and 2% HI-FBS, 1× heparin, 5 U/ml heparin-glutamine) at a density of 10^5 cells/ml. The cells were seeded into the collagen-coated assay plate at 5000 cells/well, 50 ul/well. The cells were incubated for 3 hours at 37° C., washed one time, refed with 100 ul assay media, and incubated overnight at 37° C. The next day, bispecific antibodies 219R45-MB-21M18, 219R45-MB-21R79, parental antibody 219R45, or control antibody LZ1 were prepared in a mixture with human VEGF (R&D Biosystems, Minneapolis, Minn.). The antibodies were serially diluted 5-fold from […] to 0.25 nM in assay buffer in combination with hVEGF (final concentration 5 ng/ml). The mixture was pre-incubated at 37° C. for 2 hours. The medium was removed from the assay plate, and 100 μl of the antibody/hVEGF mixture was added to each well. […] The plate was read with a SpectraMax M5e Microplate reader (Molecular Devices, Sunnyvale CA) using a excitation wavelength of […] and an emission wavelength of 590 nm.

Molecule | inhibition of tumor growth (bioluminescence) [1] | simultaneous binding to hVEGF and hDLL4 [2] | inhibition of VEGF-induced HUVEC proliferation [3]
B1 | inhibited tumor growth |  | 
B2 |  | able to bind both hVEGF and hDLL4 simultaneously | inhibited HUVEC proliferation
B3 | more effective than either the anti-DLL4 antibody or the anti-VEGF antibody alone | able to bind both hVEGF and hDLL4 simultaneously | inhibited HUVEC proliferation
